Experimental data reported in the supplement of paper PMC10567573.

B1: PSD2 (parent)
chain: PLMGETQERERVLTHFSRRYCQCN
B2: KCNAB2 (parent)
chain: IPPYSRASLKGYQWLKDKILSEEG

Variants of: B1
Assay: protein stability index of a GFP-peptide fusion (GPS, HEK-293T) (PSI 1-6); higher = more stable
Conditions: c terminus: a fixed tail appended
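Note: lentivirally expressed fusions sorted by FACS into six bins by GFP to DsRed ratio, PSI derived from sequencing read proportions per bin multiplied by bin number.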

Protein stability index, by site and new letter:
E10: H 2.23 | Q 2.33 | L 2.27 | S 2.14 | N 2.8 | M 1.93 | C 2.92 | D 2.44
E8: D 3.46 | F 1.67 | H 1.97 | I 2.69 | C 2.17 | G 2.35 | V 1.71 | W 1.65 | P 2.27 | S 2.39 | N 2.46 | Y 1.79 | Q 3.54 | M 1.62 | K 2.12 | R 2.78 | L 1.89 | A 2.03
T14: F 2.63 | A 2.62 | E 2.93 | D 2.92
E5: K 2.2 | Y 1.83 | Q 2.07 | F 2.74 | L 2.08 | A 2.78 | G 2.46 | W 1.86 | C 1.32 | P 2.94 | M 1.87 | H 2.77 | I 2.64 | N 2.69 | D 2.38 | R 2.39 | V 1.92 | S 2.66 | T 2.09
G4: D 3.24 | L 2.02 | F 2.31 | Y 2.06 | A 3.3 | H 2.93 | P 3.62 | I 2.76 | T 3.86 | W 2.07 | N 2.92 | S 2.92 | K 2.6 | C 2.49 | E 3.95 | Q 2.43

Variants of: B2
Assay: as above
Conditions: c terminus: a fixed tail appended

Protein stability index: each site, then its substitutions
K18: Y 2.05 | W 1.39
E22: S 2.08 | K 1.75 | R 1.62 | H 1.45 | V 1.22 | N 2.26 | A 2.74 | F 2.12 | P 2.48 | T 1.97 | C 2.09 | Q 2.47 | D 2.68 | W 2.74 | G 1.68
I19: F 2.21 | Q 2.12 | S 3.16 | E 4 | M 3.53 | R 3.32 | L 2.86 | H 2.98 | P 3.8 | D 3.73 | A 2.57 | Y 2.58 | T 3.4 | N 2.86 | V 3.17
S21: F 2.28 | Y 2.08 | M 2.43 | I 2.3 | N 2.02 | T 2.31 | C 2.42 | D 3.56 | L 2.19 | V 1.67 | P 2.45 | K 3.24 | W 3.22 | A 2.8 | R 1.68 | Q 3.31 | G 1.86 | H 2.12
L20: V 2 | E 3.75 | N 3.06 | A 3.71 | F 1.98 | Y 2.51 | D 3.91 | T 3.54 | G 2.19 | C 2.63 | K 2.81 | S 2.92 | I 2.29 | W 2.54 | H 2.16 | M 2.47 | P 3.27 | Q 2.8
G24: F 1.99 | N 2.05 | W 1.35 | R 1.47 | D 3.48 | A 2.31 | V 1.77 | E 3.1 | T 1.99 | M 2.56 | Y 1.48 | C 2.06 | Q 3.79 | H 2.09 | L 1.43 | I 1.81 | K 2.61 | P 1.95 | S 2.49
E23: T 3.2 | Y 2.18 | M 2.31 | S 4.83 | N 2 | P 1.6 | V 2.5 | A 3.77 | K 1.84 | I 2.62 | Q 2.39 | H 1.76 | R 2.43 | F 3.45 | D 1.51
